From article PMC12090219, “Reversible Substrate-Specific Photocontrol of the Chemotherapeutic Asparaginase(-Glutaminase) from Escherichia coli” (ACS Catalysis, 2025)

T1: wild-type Escherichia coli type II asparaginase (E. coli), P00805
T1 chain: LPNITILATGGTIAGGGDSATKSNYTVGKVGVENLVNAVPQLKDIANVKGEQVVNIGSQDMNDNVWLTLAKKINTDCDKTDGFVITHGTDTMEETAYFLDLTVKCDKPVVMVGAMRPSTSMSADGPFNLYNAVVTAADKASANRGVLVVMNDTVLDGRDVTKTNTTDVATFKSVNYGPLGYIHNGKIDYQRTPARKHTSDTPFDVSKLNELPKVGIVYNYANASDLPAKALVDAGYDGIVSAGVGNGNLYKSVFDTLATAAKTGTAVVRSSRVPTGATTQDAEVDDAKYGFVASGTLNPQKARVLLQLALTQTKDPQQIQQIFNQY


Experiments:
[1] = target: T1, wild-type Escherichia coli type II …; test: SEC-MALS; analytical size-exclusion chromatography with static light scattering detection; 40 uM EcAII on S200 10/300 GL in 50 mM Tris/HCl pH 7.0, 100 mM NaCl; detection at 280 and 334 nm; conditions: remark: other sources report otherwise
[2] = target: the molecule itself; test: as above

Row | stoichiometry N [1] | Binder | stoichiometry N [2]
1 | 4 | wild-type Escherichia coli type II asparaginase, P00805 23-348 (enzyme) LPNITILATGGTIAGGGDSATKSNYTVGKVGVENLVNAVPQLKDIANVKGEQVVNIGSQDMNDNVWLTLAKKINTDCDKTDGFVITHGTDTMEETAYFLDLTVKCDKPVVMVGAMRPSTSMSADGPFNLYNAVVTAADKASANRGVLVVMNDTVLDGRDVTKTNTTDVATFKSVNYGPLGYIHNGKIDYQRTPARKHTSDTPFDVSKLNELPKVGIVYNYANASDLPAKALVDAGYDGIVSAGVGNGNLYKSVFDTLATAAKTGTAVVRSSRVPTGATTQDAEVDDAKYGFVASGTLNPQKARVLLQLALTQTKDPQQIQQIFNQY | –
2 | – | EcAII-S19AzoF (enzyme, E. coli, phenylalanine-4'-azobenzene (AzoF) at position 19, type II L-asparaginase (EcAII) from E. coli, gene ansB, UniProt P00805, with the unnatural amino acid AzoF in place of S19; The new residue is the unnatural amino acid phenylalanine-4'-azobenzene; the as-isolated state is ~100% E; also called EcAII with phenylalanine-4'-azobenzene at position S19) LPNITILATGGTIAGGGDFATKSNYTVGKVGVENLVNAVPQLKDIANVKGEQVVNIGSQDMNDNVWLTLAKKINTDCDKTDGFVITHGTDTMEETAYFLDLTVKCDKPVVMVGAMRPSTSMSADGPFNLYNAVVTAADKASANRGVLVVMNDTVLDGRDVTKTNTTDVATFKSVNYGPLGYIHNGKIDYQRTPARKHTSDTPFDVSKLNELPKVGIVYNYANASDLPAKALVDAGYDGIVSAGVGNGNLYKSVFDTLATAAKTGTAVVRSSRVPTGATTQDAEVDDAKYGFVASGTLNPQKARVLLQLALTQTKDPQQIQQIFNQY | 4
3 | – | EcAII-T21AzoF (enzyme, E. coli, phenylalanine-4'-azobenzene (AzoF) at position 21, type II L-asparaginase (EcAII) from E. coli, gene ansB, UniProt P00805, with the unnatural amino acid AzoF in place of T21; The new residue is the unnatural amino acid phenylalanine-4'-azobenzene; the as-isolated state is ~100% E; also called EcAII with phenylalanine-4'-azobenzene at position T21) LPNITILATGGTIAGGGDSAFKSNYTVGKVGVENLVNAVPQLKDIANVKGEQVVNIGSQDMNDNVWLTLAKKINTDCDKTDGFVITHGTDTMEETAYFLDLTVKCDKPVVMVGAMRPSTSMSADGPFNLYNAVVTAADKASANRGVLVVMNDTVLDGRDVTKTNTTDVATFKSVNYGPLGYIHNGKIDYQRTPARKHTSDTPFDVSKLNELPKVGIVYNYANASDLPAKALVDAGYDGIVSAGVGNGNLYKSVFDTLATAAKTGTAVVRSSRVPTGATTQDAEVDDAKYGFVASGTLNPQKARVLLQLALTQTKDPQQIQQIFNQY | 4
